Laboratory results reported in article PMC7407080, “Methylglyoxal Detoxification Revisited: Role of Glutathione Transferase in Model Cyanobacterium Synechocystis sp. Strain PCC 6803” (mBio, 2020).
Values belong to the molecule of their own block, whether it stands above or below them.

What was measured:
[1] = target: T1, Sll0067 GST (Synechocystis sp. PCC 6803, UniProt Q55139); assay: initial velocity of GSH-MG conjugation with added S-lactoylGSH; format: biochemical; details: activator; co-substrates GSH and MG
T1 sequence (Q55139 1-184): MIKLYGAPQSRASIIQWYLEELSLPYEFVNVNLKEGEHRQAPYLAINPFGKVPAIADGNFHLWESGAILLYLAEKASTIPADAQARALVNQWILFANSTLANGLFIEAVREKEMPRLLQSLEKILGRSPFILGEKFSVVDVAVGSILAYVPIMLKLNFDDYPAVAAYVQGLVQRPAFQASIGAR

[2] = target: T1, Sll0067 GST; assay: absorbance at […] nm, GSH conjugation, Michaelis-Menten fit; format: biochemical; details: 1 mM GSH; 30 mM Tris-HCl pH 8.0, 1 mM EDTA; 25°C; read-out: affinity (apparent Km)
[3] = target: Sll0067 glutathione transferase (GST) of Synechocystis sp. strain PCC 6803, His-tagged recombinant protein (Synechocystis sp. strain PCC 6803); assay: SEC-MALS; 300 ug of purified protein in 300 ul injected at 0.5 ml/min on an analytical Superdex 200 10/300 column, 30 mM Tris-HCl pH 8.0, 200 mM NaCl; miniDAWN TREOS detector and T-rEX refractometer
[4] = substrate: CC(=O)C=O; assay: two-substrate steady-state kinetics, remaining MG by DDP fluorescence; secondary plot, allosteric sigmoidal fit; format: biochemical, Synechocystis sp. PCC 6803; details: varied GSH, 100 mM potassium phosphate, 1 mM EDTA, pH 7.5, 30°C, Hill number 1.873 ± 0.261
Excerpt: two-substrate steady-state kinetics, remaining MG by DDP fluorescence; secondary plot, allosteric sigmoidal fit on Sll0067 GST

[5] = substrate: S=C=NCCc1ccccc1; assay: purified protein; format: biochemical, Synechocystis sp. PCC 6803; details: 1 mM GSH, 100 mM phosphate pH 6.5, 25°C
[6] = substrate: S=C=NCc1ccccc1; assay: purified protein; format: biochemical, Synechocystis sp. PCC 6803; details: 1 mM GSH, 100 mM phosphate pH 6.5, 25°C

Molecule: C[C@@H](O)C(=O)SC[C@H](NC(=O)CC[C@H](N)C(=O)O)C(=O)NCC(=O)O [S-D-lactoylglutathione]
initial velocity of GSH-MG conjugation with added S-lactoylGSH [1]: All measured initial velocities of Sll0067 activity were increased by S-lactoylGSH

Molecule: O=[N+]([O-])c1ccc(Cl)c([N+](=O)[O-])c1 [1-chloro-2,4-dinitrobenzene]
Km [2]: 3.8 mM

stoichiometry N [3]: 2
Molecule: Sll0067 glutathione transferase (GST) of Synechocystis sp. strain PCC 6803, His-tagged recombinant protein (enzyme)

B1: Sll0067 GST (Synechocystis sp. PCC 6803 substr. Kazusa) (protein)
chain: T1 sequence (Q55139 1-184)
K0.5 [4]: 221.7 ± 26.3 µM
Km [5]: 31.4 µM
Km [6]: 82.0 µM
